Experimental data as given in PMC10170503, “Oral Delivery of Nanoparticles Carrying Ancestral Uricase Enzyme Protects against Hyperuricemia in Knockout Mice” (Biomacromolecules, 2023).

Target: the molecule itself
Assay: microfluidic denaturing gel electrophoresis (Bioanalyzer); Agilent Bioanalyzer 2100, Protein 80 chip; purified Qβ-wt and Qβ@AncUOX particles; dimer band left by incomplete denaturation

B1: Qβ capsid protein (coat protein), assembled as virus-like particle (natural protein, Qβ (bacteriophage, as named), UniProt P03615 1-133, looked up)
chain: MAKLETVTLGNIGKDGKQTLVLNPRGVNPTNGVASLSQAGAVPALEKRVTVSVSQPSRNRKNYKVQVKIQNPTACTANGSCDPSVTRQAYADVTFSFTQYSTDEERAFVRTELAALLASPLLIDAIDQLNPAY
notes: also called Qβ CP; CP; source: E. coli BL21 (DE3), co-expressed with Rev-tagged AncUOX from a bicistronic pCDF-1b plasmid; VLPs purified (ammonium sulfate precipitation, n-butanol:chloroform extraction, sucrose density ultracentrifugation)
stoichiometry N: 2
